Laboratory results taken from publication PMC9352680, “A comprehensive thermodynamic model for RNA binding by the Saccharomyces cerevisiae Pumilio protein PUF4”.

T1: PUF4 RNA-binding domain (Saccharomyces cerevisiae, UniProt P25339 537-888)
T1 sequence: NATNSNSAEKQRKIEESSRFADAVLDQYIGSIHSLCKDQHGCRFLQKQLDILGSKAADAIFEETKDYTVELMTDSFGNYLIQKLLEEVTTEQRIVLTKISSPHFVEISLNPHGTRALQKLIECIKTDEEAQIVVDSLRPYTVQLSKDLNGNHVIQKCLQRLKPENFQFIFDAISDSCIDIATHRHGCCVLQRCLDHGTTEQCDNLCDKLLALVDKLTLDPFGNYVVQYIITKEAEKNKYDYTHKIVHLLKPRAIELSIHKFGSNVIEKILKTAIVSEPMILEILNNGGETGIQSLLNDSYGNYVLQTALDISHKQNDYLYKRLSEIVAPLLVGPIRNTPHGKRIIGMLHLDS

B1: Ic_S1_P4E.1_K4.1_C4.1_H4.1_A4.1_[T7C]_F4.1_[A9C]_T4.1 (ssRNA)
RNA: UCUCUUUGUAUACUCUCUCUU
B2: Id_ii_S1_P3E.2_K3.1_C3.2_[C-2T]_[T-1C]_H3.1_A3.1_F3.1_T3.2 (ssRNA)
RNA: UCUCUUUCUGUAUAUAUAUCUCUU
B3: Id_ii_S1_P3E.2_K3.1_C3.2_[C-2T]_[T-1A]_H3.1_A3.1_F3.1_T3.2 (ssRNA)
RNA: UCUCUUUAUGUAUAUAUAUCUCUU
B4: Ic_S1_P4E.1_K4.1_C4.1_H4.1_A4.1_[T7G]_F4.1_[A9C]_T4.1 (ssRNA)
RNA: UCUCUUUGUAUAGUCUCUCUU
B5: Ic_S4_P5E.1_K5.1_C5.1_H5.1_A5.1_[T6A]_[A7T]_F5.1_[T8A]_[T9A]_[A10T]_T5.1 (ssRNA)
RNA: UUUGACAACUGAUCGUUCUUUCUUGUAUAUAAUUUCUUUCUCGAUCAGUUGUCUUU
B6: Ic_S4_P5E.1_K5.1_C5.1_H5.1_A5.1_[T5A]_[T6C]_[A7T]_F5.1_[T8A]_[A10C]_T5.1 (ssRNA)
RNA: UUUGACAACUGAUCGUUCUUUCUUGUAACUAUCUUCUUUCUCGAUCAGUUGUCUUU
B7: Ic_S4_P5E.1_K5.1_C5.1_H5.1_A5.1_[T5G]_[A7T]_F5.1_[T8C]_[A10T]_T5.1 (ssRNA)
RNA: UUUGACAACUGAUCGUUCUUUCUUGUAGUUCUUUUCUUUCUCGAUCAGUUGUCUUU
B8: Ic_S4_P5E.1_K5.1_C5.1_H5.1_A5.1_[T6G]_[A7G]_F5.1_[T8C]_[A10C]_T5.1 (ssRNA)
RNA: UUUGACAACUGAUCGUUCUUUCUUGUAUGGCUCUUCUUUCUCGAUCAGUUGUCUUU
B9: Ic_S4_P5E.1_K5.1_C5.1_H5.1_A5.1_[T5A]_[T6A]_[A7T]_F5.1_[T8A]_[T9C]_[A10G]_T5.1 (ssRNA)
RNA: UUUGACAACUGAUCGUUCUUUCUUGUAAAUACGUUCUUUCUCGAUCAGUUGUCUUU
B10: Ic_S4_P5E.1_K5.1_C5.1_H5.1_A5.1_[T5C]_[T6G]_[A7C]_F5.1_[T8C]_[T9C]_T5.1 (ssRNA)
RNA: UUUGACAACUGAUCGUUCUUUCUUGUACGCCCAUUCUUUCUCGAUCAGUUGUCUUU
B11: Ic_S4_P5E.1_K5.1_C5.1_H5.1_A5.1_[T5A]_[T6C]_[A7C]_F5.1_[A10T]_T5.1 (ssRNA)
RNA: UUUGACAACUGAUCGUUCUUUCUUGUAACCUUUUUCUUUCUCGAUCAGUUGUCUUU
B12: Ic_S4_P5E.1_K5.1_C5.1_H5.1_A5.1_[T5G]_[A7C]_F5.1_[T9C]_[A10G]_T5.1 (ssRNA)
RNA: UUUGACAACUGAUCGUUCUUUCUUGUAGUCUCGUUCUUUCUCGAUCAGUUGUCUUU
B13: Ic_S4_P5E.1_K5.1_C5.1_H5.1_A5.1_[T5A]_[T6C]_[A7T]_F5.1_[T8C]_[T9C]_[A10C]_T5.1 (ssRNA)
RNA: UUUGACAACUGAUCGUUCUUUCUUGUAACUCCCUUCUUUCUCGAUCAGUUGUCUUU
B14: Ic_S4_P5E.1_K5.1_C5.1_H5.1_A5.1_[T5A]_[A7G]_F5.1_[T8G]_[A10C]_T5.1 (ssRNA)
RNA: UUUGACAACUGAUCGUUCUUUCUUGUAAUGGUCUUCUUUCUCGAUCAGUUGUCUUU
B15: Ic_S4_P5E.1_K5.1_C5.1_H5.1_A5.1_[T5C]_F5.1_[T8A]_[T9C]_[A10C]_T5.1 (ssRNA)
RNA: UUUGACAACUGAUCGUUCUUUCUUGUACUAACCUUCUUUCUCGAUCAGUUGUCUUU
B16: Ic_S4_P5E.1_K5.1_C5.1_H5.1_A5.1_[T6G]_[A7T]_F5.1_[T8A]_[T9A]_T5.1 (ssRNA)
RNA: UUUGACAACUGAUCGUUCUUUCUUGUAUGUAAAUUCUUUCUCGAUCAGUUGUCUUU
B17: Ic_S4_P5E.1_K5.1_C5.1_H5.1_A5.1_[T6A]_[A7T]_F5.1_[T8C]_[T9C]_[A10T]_T5.1 (ssRNA)
RNA: UUUGACAACUGAUCGUUCUUUCUUGUAUAUCCUUUCUUUCUCGAUCAGUUGUCUUU
B18: Ic_S4_P5E.1_K5.1_C5.1_H5.1_A5.1_[T5A]_[T6A]_[A7T]_F5.1_[T9A]_T5.1 (ssRNA)
RNA: UUUGACAACUGAUCGUUCUUUCUUGUAAAUUAAUUCUUUCUCGAUCAGUUGUCUUU
B19: Ic_S4_P5E.1_K5.1_C5.1_H5.1_A5.1_[T6A]_[A7T]_F5.1_[T8C]_[T9G]_[A10G]_T5.1 (ssRNA)
RNA: UUUGACAACUGAUCGUUCUUUCUUGUAUAUCGGUUCUUUCUCGAUCAGUUGUCUUU
B20: Ic_S4_P5E.1_K5.1_C5.1_H5.1_A5.1_[T5C]_[T6A]_F5.1_[T9G]_[A10G]_T5.1 (ssRNA)
RNA: UUUGACAACUGAUCGUUCUUUCUUGUACAAUGGUUCUUUCUCGAUCAGUUGUCUUU
B21: Id_ii_S1_P3E.2_K3.1_C3.2_[C-2G]_[T-1C]_H3.1_A3.1_F3.1_T3.2 (ssRNA)
RNA: UCUCUUGCUGUAUAUAUAUCUCUU
B22: Id_ii_S1_P3E.2_K3.1_C3.2_[C-2T]_[T-1G]_H3.1_A3.1_F3.1_T3.2 (ssRNA)
RNA: UCUCUUUGUGUAUAUAUAUCUCUU

Target: T1, PUF4 RNA-binding domain
Assay: Mg; RNA-MaP; 20 mM Na-HEPES pH 7.4, 30 mM KOAc, 0.75 mM MgCl2, 0.1% Tween-20, 5% glycerol, 0.1 mg/mL BSA, 2 mM DTT; 25 C; 0.0125-409.6 nM protein
Details: tags: N-His6-TEV cleaved; C-SNAP kept, Cy3B-labelled; label: tethered on chip by stalled RNA polymerase

Row | Binder | Kd [nM]
1 | B1 | 9.32
2 | B2 | 3.33
3 | B3 | 8.02
4 | B4 | 23.4
5 | B5 | 2.4
6 | B6 | 156
7 | B7 | 91.8
8 | B8 | 849
9 | B9 | 50.2
10 | B10 | 463
11 | B11 | 18
12 | B12 | 425
13 | B13 | 198
14 | B14 | 1350
15 | B15 | 229
16 | B16 | 55.6
17 | B17 | 14.7
18 | B18 | 2.48
19 | B19 | 72.8
20 | B20 | 16.9
21 | B21 | 7.65
22 | B22 | 6.24
